Where a SMILES comes first, the peptide text is derived from it. Bridges are numbered along the chain shown (N, C = ends). Where no end group is shown, it is not given here.
Tests used:
[1] = target: T1, interaction of SARS-CoV-2 S1 and hACE2 in hACE2-overexpressed HEK293 cells (Severe acute respiratory syndrome coronavirus 2, UniProt P0DTC2); format: cell-based, human
T1 construct: S1 protein-His Tag (AcroBiosystems, S1N-C52H3-100UG, USA); AcroBiosystems (S1 protein) 145033; S1N-C52H3-100UG; host or cells: HEK293

S1 subunit of SARS-CoV-2 = target: T2, S1 subunit of SARS-CoV-2 (Severe acute respiratory syndrome coronavirus 2, UniProt P0DTC2); format: binding
T2 construct: ACE2 and S1 subunits of SARS-CoV-2; His Tag; purchased AcroBiosystems S1N-C52H3-100UG

Molecule | effect on S1-ACE2 interaction [1] | dependent binding to S1 (S1 subunit of SARS-CoV-2) | effect on membrane localization of S1 [1]
CSNP3 (ENAINFLDKDNHEKEDLFYQ; not fully specified) | completely eliminated the S1-ACE2 interaction | no dependent binding | –
CC[C@H](C)[C@H](NC(=O)[C@H](CCCNC(=N)N)NC(=O)[C@@H]1CSSC[C@H](NC(=O)CNC(=O)CNC(=O)[C@@H]2CCCN2C(=O)[C@H](CO)NC(=O)[C@H](C)NC(=O)[C@H](CC(C)C)NC(=O)[C@H](CO)NC(=O)[C@H](CO)NC(=O)[C@H](CCCCN)NC(=O)[C@H](Cc2ccc(O)cc2)NC(=O)[C@H](Cc2ccccc2)NC(=O)[C@H](CC(C)C)NC(=O)[C@H](CC(=O)O)NC(=O)[C@H](CCC(=O)O)NC(=O)[C@@H]2CCCCNC(=O)C[C@H](NC(=O)[C@H](CCCCN)NC(=O)[C@H](CC(=O)O)NC(=O)[C@H](CC(C)C)NC(=O)[C@H](Cc3ccccc3)NC(=O)[C@H](CC(N)=O)NC(=O)[C@H](C)NC(=O)[C@H](C)NC(=O)[C@H](CCC(N)=O)NC(=O)[C@@H](N)CC(C)C)C(=O)N[C@@H](CC(N)=O)C(=O)N[C@@H](CC(=O)O)C(=O)N[C@@H](CCC(=O)O)C(=O)N2)C(=O)N[C@@H](CC(C)C)C(=O)NCC(=O)N[C@@H](CCCCN)C(=O)NCC(=O)N[C@@H](CC(=O)O)C(=O)N1)C(=O)N[C@@H](CC(C)C)C(=O)O [CSNP2] (H-LQAANFLDKDNDEKEDLFYKSSLASPGGCLGKGDCRIL-OH; lactam 10-14; disulfide 29-35; N-terminus and C-terminus assumed) | – | – | completely blocked the membrane localization of S1
